Data as given in US20220040297A1 (Chugai, published 2022).
Ends that are not written are not given here.

T1: biotin-labeled CD3ε peptide (also: biotin-labeled, site not given here)
T1 construct: also called CD3 peptide; biotinylated CD3ε peptide
T1 peptide: QDGNEEMGGITQTPY

T2: Cy CD3ε/g
T2 construct: also called cynomolgus monkey CD3εγ on Ba/F3 cells
T2 epsilon: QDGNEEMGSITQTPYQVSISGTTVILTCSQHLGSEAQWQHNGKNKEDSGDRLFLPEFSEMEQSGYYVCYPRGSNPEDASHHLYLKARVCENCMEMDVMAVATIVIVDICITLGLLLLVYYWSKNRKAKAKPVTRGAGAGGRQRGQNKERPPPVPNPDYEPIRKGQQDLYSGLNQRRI
T2 gamma: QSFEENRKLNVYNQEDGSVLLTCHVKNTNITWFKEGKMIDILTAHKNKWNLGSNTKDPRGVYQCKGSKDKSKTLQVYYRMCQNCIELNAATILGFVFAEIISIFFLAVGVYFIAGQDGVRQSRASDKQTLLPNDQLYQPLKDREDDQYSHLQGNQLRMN


How the values were obtained:
CD3ε homodimer protein [1] = biological target: T3, CD3ε homodimer protein (human, UniProt P07766 23-126, limits assumed); experiment: SPR (Biacore T200, 25°C); CD3ε homodimer immobilized on CM4, one-arm antibody as analyte
T3 construct: also called human CD3ε homodimer protein; CD3e homodimer

CD3ε homodimer protein [2] = biological target: T3, CD3ε homodimer protein; experiment: SPR (Biacore T200, 25°C); CD3ε homodimer immobilized on CM4, one-arm antibody as analyte; first of two CE115HA340 lines (r6, 2.0E-08); the second line (r8) gives 2.7E-08
[3] = biological target: T4, human IgA-Fc with AviTag, biotinylated (human, UniProt P01876 123-333, limits assumed, biotinylated at the C-terminal AviTag sequence); experiment: ECL; biotinylated hIgA, ratio to the no-antigen well
T4 construct: also called hIgA; biotinylated human IgA

[4] = biological target: T4, human IgA-Fc with AviTag, biotinylated; experiment: as above; remark: listed apart in the source
[5] = biological target: T1, biotin-labeled CD3ε peptide; experiment: ECL; CD3 peptide as antigen, ratio to the no-antigen well
[6] = biological target: T5, integrin αvβ3 (R&D Systems, Inc.) (human, UniProt P06756 31-992; P05106 27-718); experiment: ECL; integrin αvβ3 on plate, ratio to the integrin-free well
[7] = biological target: T4, human IgA-Fc with AviTag, biotinylated; experiment: ECL; hIgA value without against with integrin αvβ3 (competitor)
[8] = biological target: T4, human IgA-Fc with AviTag, biotinylated; experiment: ECL; hIgA signal without against with CD3ε homodimer protein (competitor)
[9] = biological target: T5, integrin αvβ3 (R&D Systems, Inc.); experiment: ECL; integrin αvβ3 value without against with CD3ε homodimer protein (competitor)
[10] = biological target: T4, human IgA-Fc with AviTag, biotinylated; experiment: ECL; biotinylated hIgA with integrin αvβ3 (competitor), ratio to the no-antigen well
[11] = biological target: T4, human IgA-Fc with AviTag, biotinylated; experiment: ECL; biotinylated hIgA with CD3ε homodimer protein (competitor), ratio to the no-antigen well
[12] = biological target: T5, integrin αvβ3 (R&D Systems, Inc.); experiment: ECL; integrin αvβ3 on plate with CD3ε homodimer protein (competitor), ratio to the integrin-free well
hCD3ε/g = biological target: T6, hCD3ε/g; experiment: cell-ELISA on Ba/F3 cells expressing human CD3εγ, hybridoma culture supernatant (CM)
T6 construct: also called human CD3εγ on Ba/F3 cells

Cy CD3ε/g = biological target: T2, Cy CD3ε/g; experiment: cell-ELISA on Ba/F3 cells expressing cynomolgus monkey CD3εγ, hybridoma culture supernatant (CM)

Kd (CD3ε homodimer protein [1])	Kd (CD3ε homodimer protein [2])	Value as compared with antigen-free well [3]	Value as compared with antigen-free well [4]	Value as compared with antigen-free well [5]	Value as compared with integrin αvβ3-free well [6]	Amount of binding to hIgA attenuated by integrin αvβ3 [7]	Amount of binding to hIgA attenuated by CD3 [8]	Amount of binding to integrin αvβ3 attenuated by CD3 [9]	Value as compared with antigen-free well [10]	Value as compared with antigen-free well [11]	Value as compared with integrin αvβ3-free well [12]	binding result (hCD3ε/g)	binding result (Cy CD3ε/g)	Binder
27 nM	20 nM													CE115HA340 / GLS3000 one-arm antibody (antibody, human IgG1, kappa, L234A L235A, N297A, one-arm antibody) heavy: QVQLVESGGGLVQPGRSLRLSCAASGFTFSNAWMHWVRQAPGKGLEWVAQIKDKSNNYATYYAESVKGRFTISRDDSKNSIYLQMNSLKTEDTAVYYCRYVHYAAYYGVDAWGQGTTVTVSSASTKGPSVFPLAPSSKSTSGGTAALGCLVKDYFPEPVTVSWNSGALTSGVHTFPAVLQSSGLYSLSSVVTVPSSSLGTQTYICNVNHKPSNTKVDKKVEPKSCDKTHTCPPCPAPEAAGGPSVFLFPPKPKDTLMISRTPEVTCVVVDVSHEDPEVKFNWYVDGVEVHNAKTKPREEQYASTYRVVSVLTVLHQDWLNGKEYKCKVSNKALPAPIEKTISKAKGQPREPQVYTLPPSRCELTKNQVSLSCAVKGFYPSDIAVEWESNGQPENNYKTTPPVLDSDGSFFLVSKLTVDKSRWQQGNVFSCSVMHEALHNHYTQKSLSLSPDYKDDDDK EPKSSDKTHTCPPCPAPELLGGPSVFLFPPKPKDTLMISRTPEVTCVVVDVSHEDPEVKFNWYVDGVEVHNAKTKPREEQYNSTYRVVSVLTVLHQDWLNGKEYKCKVSNKALPAPIEKTISKAKGQPREPQVCTLPPSRDELTKNQVSLWCLVKGFYPSDIAVEWESNGQPENNYKTTPPVLDSDGSFFLYSKLTVDKSRWQQGNVFSCSVMHEALHNRYTQKSLSLSP light: DIVMTQSPLSLPVTPGEPASISCRSSQSLVHSNRNTYLHWYQQKPGQAPRLLIYKVSNRFSGVPDRFSGSGSGTDFTLKISRVEAEDVGVYYCGQGTQVPYTFGQGTKLEIKRTVAAPSVFIFPPSDEQLKSGTASVVCLLNNFYPREAKVQWKVDNALQSGNSQESVTEQDSKDSTYSLSSTLTLSKADYEKHKVYACEVTHQGLSSPVTKSFNRGEC
		20 fold	15.6 fold	910 fold	0.8 fold	1 fold	23.4 fold	1 fold	15.9 fold	1 fold	0.8 fold			IGAR6(2)B02 (antibody, human IgG1, kappa, L234A L235A, N297A, One-arm antibody; also called IGA6 (2) B02; IGAR6(2)B02#1) heavy: QVQLVESGGGLVQPGRSLRLSCAASGFTFSNAWMHWVRQAPGKGLEWVAQIKDKGQQYAAYYAPSVKGRFTISRDDSKNSIYLQMNSLKTEDTAVYYCRYVHYQTYSDGSFYFGVDAWGQGTTVTVSSASTKGPSVFPLAPSSKSTSGGTAALGCLVKDYFPEPVTVSWNSGALTSGVHTFPAVLQSSGLYSLSSVVTVPSSSLGTQTYICNVNHKPSNTKVDKKVEPKSCDKTHTCPPCPAPEAAGGPSVFLFPPKPKDTLMISRTPEVTCVVVDVSHEDPEVKFNWYVDGVEVHNAKTKPREEQYASTYRVVSVLTVLHQDWLNGKEYKCKVSNKALPAPIEKTISKAKGQPREPQVYTLPPSRCELTKNQVSLSCAVKGFYPSDIAVEWESNGQPENNYKTTPPVLDSDGSFFLVSKLTVDKSRWQQGNVFSCSVMHEALHNHYTQKSLSLSPDYKDDDDK EPKSSDKTHTCPPCPAPELLGGPSVFLFPPKPKDTLMISRTPEVTCVVVDVSHEDPEVKFNWYVDGVEVHNAKTKPREEQYNSTYRVVSVLTVLHQDWLNGKEYKCKVSNKALPAPIEKTISKAKGQPREPQVCTLPPSRDELTKNQVSLWCLVKGFYPSDIAVEWESNGQPENNYKTTPPVLDSDGSFFLYSKLTVDKSRWQQGNVFSCSVMHEALHNRYTQKSLSLSP light: DIVMTQSPLSLPVTPGEPASISCRSSQSLVHSNRNTYLHWYQQKPGQAPRLLIYKVSNRFSGVPDRFSGSGSGTDFTLKISRVEAEDVGVYYCGQGTQVPYTFGQGTKLEIKRTVAAPSVFIFPPSDEQLKSGTASVVCLLNNFYPREAKVQWKVDNALQSGNSQESVTEQDSKDSTYSLSSTLTLSKADYEKHKVYACEVTHQGLSSPVTKSFNRGEC
		8 fold	3.9 fold	1410 fold	438 fold	2.5 fold	7.4 fold	2.4 fold	1.6 fold	1 fold	185 fold			IGAR6(2)B02H1 (antibody, human IgG1, kappa, L234A L235A, N297A, One-arm antibody) heavy: QVQLVESGGGLVQPGRSLRLSCAASGFTFSNAWMHWVRQAPGKGLEWVAQIKDKGQQYAAYYAPSVKGRFTISRDGCRGDCLDSKNSIYLQMNSLKTEDTAVYYCRYVHYQTYSDGSFYFGVDAWGQGTTVTVSSASTKGPSVFPLAPSSKSTSGGTAALGCLVKDYFPEPVTVSWNSGALTSGVHTFPAVLQSSGLYSLSSVVTVPSSSLGTQTYICNVNHKPSNTKVDKKVEPKSCDKTHTCPPCPAPEAAGGPSVFLFPPKPKDTLMISRTPEVTCVVVDVSHEDPEVKFNWYVDGVEVHNAKTKPREEQYASTYRVVSVLTVLHQDWLNGKEYKCKVSNKALPAPIEKTISKAKGQPREPQVYTLPPSRCELTKNQVSLSCAVKGFYPSDIAVEWESNGQPENNYKTTPPVLDSDGSFFLVSKLTVDKSRWQQGNVFSCSVMHEALHNHYTQKSLSLSPDYKDDDDK EPKSSDKTHTCPPCPAPELLGGPSVFLFPPKPKDTLMISRTPEVTCVVVDVSHEDPEVKFNWYVDGVEVHNAKTKPREEQYNSTYRVVSVLTVLHQDWLNGKEYKCKVSNKALPAPIEKTISKAKGQPREPQVCTLPPSRDELTKNQVSLWCLVKGFYPSDIAVEWESNGQPENNYKTTPPVLDSDGSFFLYSKLTVDKSRWQQGNVFSCSVMHEALHNRYTQKSLSLSP light: DIVMTQSPLSLPVTPGEPASISCRSSQSLVHSNRNTYLHWYQQKPGQAPRLLIYKVSNRFSGVPDRFSGSGSGTDFTLKISRVEAEDVGVYYCGQGTQVPYTFGQGTKLEIKRTVAAPSVFIFPPSDEQLKSGTASVVCLLNNFYPREAKVQWKVDNALQSGNSQESVTEQDSKDSTYSLSSTLTLSKADYEKHKVYACEVTHQGLSSPVTKSFNRGEC
												binds	binds	CE#115 (antibody, V domains shown, also called CE115, rat hybridoma culture supernatant) VH: EVQLVETGGSLVQPGKSLKLTCATSGFTFSNAWMHWVRQSPEKQLEWVAQIKAKSNNYATYYAESVKGRFTISRDDSKSNIYLQMNSLKEEDTAVYYCRYVHYGAYYGVDAWGQGTSVTVSS VL: DVVMTQTPVSMSVSLGGQVSISCRSSQSLVHNNGNTYVSWYIQKPSQSPQLLIYKVSNRFSGISDRFSGSGSGTDFTLKISRVEPDDLGVYYCGQGTQDPYTFGAGTKLELK
